The text below walks through data of article PMC12363564, “Modulation of the PTPRS proteoglycan switch by antibodies binding to the membrane-proximal fibronectin-type III domain” (The Journal of Biological Chemistry, 2025).

Read-outs that look alike come from different tables or passages of the source.

Assay [1] deals with T1, C-terminally 6xHis tagged mouse PTPRS (mPTPRS) ECD (mouse, UniProt B0V2N1 30-1257).
T1 chain: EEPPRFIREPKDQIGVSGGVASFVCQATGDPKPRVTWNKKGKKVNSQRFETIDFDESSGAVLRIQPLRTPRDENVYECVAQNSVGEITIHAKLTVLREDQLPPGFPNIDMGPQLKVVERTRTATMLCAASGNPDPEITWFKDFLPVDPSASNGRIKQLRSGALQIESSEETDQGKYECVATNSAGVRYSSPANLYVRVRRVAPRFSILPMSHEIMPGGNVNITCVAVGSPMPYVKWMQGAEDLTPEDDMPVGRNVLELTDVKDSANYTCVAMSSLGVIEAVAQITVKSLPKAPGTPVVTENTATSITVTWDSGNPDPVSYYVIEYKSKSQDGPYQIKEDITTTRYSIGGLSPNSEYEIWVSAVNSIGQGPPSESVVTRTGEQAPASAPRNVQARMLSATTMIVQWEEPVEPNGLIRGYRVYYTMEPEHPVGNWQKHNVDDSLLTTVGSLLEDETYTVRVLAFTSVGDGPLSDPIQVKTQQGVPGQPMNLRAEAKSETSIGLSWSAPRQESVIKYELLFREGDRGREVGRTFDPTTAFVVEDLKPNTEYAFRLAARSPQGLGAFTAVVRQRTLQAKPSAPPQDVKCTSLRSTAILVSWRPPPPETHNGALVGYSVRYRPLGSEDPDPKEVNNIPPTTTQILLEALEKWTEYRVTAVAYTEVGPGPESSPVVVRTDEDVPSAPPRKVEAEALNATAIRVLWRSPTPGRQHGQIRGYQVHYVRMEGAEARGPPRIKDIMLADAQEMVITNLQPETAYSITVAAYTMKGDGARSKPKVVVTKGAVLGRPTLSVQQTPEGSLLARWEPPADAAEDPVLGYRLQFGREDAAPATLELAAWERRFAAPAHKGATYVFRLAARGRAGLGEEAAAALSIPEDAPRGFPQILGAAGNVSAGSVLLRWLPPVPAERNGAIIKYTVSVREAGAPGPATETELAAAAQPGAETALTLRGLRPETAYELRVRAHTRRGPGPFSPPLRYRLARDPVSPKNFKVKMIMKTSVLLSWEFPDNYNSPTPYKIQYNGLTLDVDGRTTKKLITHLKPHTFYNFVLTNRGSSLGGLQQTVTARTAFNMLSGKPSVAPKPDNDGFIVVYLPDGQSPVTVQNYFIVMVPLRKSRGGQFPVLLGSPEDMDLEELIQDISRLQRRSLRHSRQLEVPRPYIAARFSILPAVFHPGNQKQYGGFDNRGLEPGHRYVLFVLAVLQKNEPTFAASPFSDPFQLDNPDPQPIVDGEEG
The assay can be described thus: BLI. (Biolayer interferometry detects binding as a change in optical thickness at a sensor tip.)

Assay [2] has as its target T2, C-terminally 6xHis tagged mouse PTPRS (mPTPRS) ECD (Mus musculus, UniProt B0V2N1).
T2 construct: also called mPTPRS ectodomain; PTPRS ectodomain; source: HEK293T, transiently transfected, supernatant; purified (Ni-NTA, HiTrap heparin); not shown: His6, C-terminal, kept
Nature of the assay: BLI; His-tagged ligand (mPTPRS ECD or hPTPRS Fn9) immobilised on anti-6xHis probes at 100 to 200 nM; antibodies or scFv-Fc fusions as analytes; Gator K buffer (0.02% BSA, 0.002% Tween-20 in PBS, pH 7.4), 37 °C; biphasic (2:1) association model. Conditions: both partners purified.

The target in assay [3] is T3, 6xHis-tagged hPTPRS Fn9 (residues 1117-1270) (human, UniProt Q13332 1117-1270).
T3 chain: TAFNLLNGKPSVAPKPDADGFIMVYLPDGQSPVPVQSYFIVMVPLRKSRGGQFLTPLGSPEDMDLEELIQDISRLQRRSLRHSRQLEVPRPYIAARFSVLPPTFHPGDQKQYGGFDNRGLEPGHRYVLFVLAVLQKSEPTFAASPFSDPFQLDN
Nature of the assay: BLI.

The target in assay [4] is T3, 6xHis-tagged hPTPRS Fn9 (residues …). The assay can be described thus: BLI.
The target of assay [5] is T4, WT human PTPRS (hPTPRS) isoform 1 with a C-terminal HA tag (human, UniProt Q13332).
T4 construct: human PTPRS isoform 1, open reading frame in pcDNA3.1 (+); also called PTPRS-HA; hPTPRS-HA; source: HEK293T, transfected; in RIPA lysate (immunoprecipitation), on or in cells (flow cytometry, PLA); not shown: HA, C-terminal, kept
The assay can be described thus: proximity ligation; purified antibody, scFv-Fc or Fc decoy added for 30 min to the co-transfected HEK293T cells before the PLA; read-out is the loss of the PLA signal of the tagged pair. Conditions: one partner purified.

The target of assay [6] is T5, 6xHis-tagged hPTPRS Fn9 (residues 1117-1270) (Homo sapiens, UniProt Q13332).
T5 construct: human PTPRS isoform 1 (Q13332), fibronectin type III-like domain 9, residues 1117-1270, amplified from WT hPTPRS and subcloned into pHLsec; the printed primers encode a start at TAFNLLN and an end at PFQLDN (translated from the primers); also called hPTPRS Fn9His; Fn9 fragment of PTPRS; source: HEK293T, transiently transfected, supernatant
Nature of the assay: BLI; His-tagged ligand (mPTPRS ECD or hPTPRS Fn9) immobilised on anti-6xHis probes at 100 to 200 nM; antibodies or scFv-Fc fusions as analytes; Gator K buffer (0.02% BSA, 0.002% Tween-20 in PBS, pH 7.4), 37 °C; biphasic (2:1) association model. Conditions: both partners purified.

Assay [7] deals with T1, C-terminally 6xHis tagged mouse PTPRS …. Nature of the assay: BLI.
For assay [8], the target named is T4, WT human PTPRS (hPTPRS) isoform 1 with …. The assay can be described thus: co-IP; RIPA lysates of HEK293T cells overexpressing HA-tagged full length or truncated hPTPRS incubated with the antibody for 2 h at 4 °C, Protein G Sepharose, anti-HA blot. The conditions noted are these: one partner purified.
In assay [9] the target is T6, PTPRS^Δ326 (hPTPRS-HA N-terminal truncation lacking Ig-like domains 1 to 3) (Homo sapiens, UniProt Q13332, point mutant).
T6 construct: human PTPRS isoform 1, N-terminal truncation lacking Ig-like domains 1 to 3, obtained from WT hPTPRS-HA by site-directed mutagenesis; source: HEK293T, transfected, in RIPA lysate; not shown: HA, C-terminal, kept
The assay is described as above. The conditions noted are these: one partner purified.

For assay [10], the target named is T7, PTPRS^Δ1096 (hPTPRS-HA N-terminal truncation lacking the ECD including most of Fn8) (Homo sapiens, UniProt Q13332, point mutant).
T7 construct: human PTPRS isoform 1, N-terminal truncation lacking the ECD including most of Fn8, obtained from WT hPTPRS-HA by site-directed mutagenesis; source: HEK293T, transfected, in RIPA lysate; not shown: HA, C-terminal, kept
The description is as above. Conditions: one partner purified.

The target of assay [11] is T1, C-terminally 6xHis tagged mouse PTPRS …. The assay can be described thus: BLI.

T4 sequence (Q13332 30-1948): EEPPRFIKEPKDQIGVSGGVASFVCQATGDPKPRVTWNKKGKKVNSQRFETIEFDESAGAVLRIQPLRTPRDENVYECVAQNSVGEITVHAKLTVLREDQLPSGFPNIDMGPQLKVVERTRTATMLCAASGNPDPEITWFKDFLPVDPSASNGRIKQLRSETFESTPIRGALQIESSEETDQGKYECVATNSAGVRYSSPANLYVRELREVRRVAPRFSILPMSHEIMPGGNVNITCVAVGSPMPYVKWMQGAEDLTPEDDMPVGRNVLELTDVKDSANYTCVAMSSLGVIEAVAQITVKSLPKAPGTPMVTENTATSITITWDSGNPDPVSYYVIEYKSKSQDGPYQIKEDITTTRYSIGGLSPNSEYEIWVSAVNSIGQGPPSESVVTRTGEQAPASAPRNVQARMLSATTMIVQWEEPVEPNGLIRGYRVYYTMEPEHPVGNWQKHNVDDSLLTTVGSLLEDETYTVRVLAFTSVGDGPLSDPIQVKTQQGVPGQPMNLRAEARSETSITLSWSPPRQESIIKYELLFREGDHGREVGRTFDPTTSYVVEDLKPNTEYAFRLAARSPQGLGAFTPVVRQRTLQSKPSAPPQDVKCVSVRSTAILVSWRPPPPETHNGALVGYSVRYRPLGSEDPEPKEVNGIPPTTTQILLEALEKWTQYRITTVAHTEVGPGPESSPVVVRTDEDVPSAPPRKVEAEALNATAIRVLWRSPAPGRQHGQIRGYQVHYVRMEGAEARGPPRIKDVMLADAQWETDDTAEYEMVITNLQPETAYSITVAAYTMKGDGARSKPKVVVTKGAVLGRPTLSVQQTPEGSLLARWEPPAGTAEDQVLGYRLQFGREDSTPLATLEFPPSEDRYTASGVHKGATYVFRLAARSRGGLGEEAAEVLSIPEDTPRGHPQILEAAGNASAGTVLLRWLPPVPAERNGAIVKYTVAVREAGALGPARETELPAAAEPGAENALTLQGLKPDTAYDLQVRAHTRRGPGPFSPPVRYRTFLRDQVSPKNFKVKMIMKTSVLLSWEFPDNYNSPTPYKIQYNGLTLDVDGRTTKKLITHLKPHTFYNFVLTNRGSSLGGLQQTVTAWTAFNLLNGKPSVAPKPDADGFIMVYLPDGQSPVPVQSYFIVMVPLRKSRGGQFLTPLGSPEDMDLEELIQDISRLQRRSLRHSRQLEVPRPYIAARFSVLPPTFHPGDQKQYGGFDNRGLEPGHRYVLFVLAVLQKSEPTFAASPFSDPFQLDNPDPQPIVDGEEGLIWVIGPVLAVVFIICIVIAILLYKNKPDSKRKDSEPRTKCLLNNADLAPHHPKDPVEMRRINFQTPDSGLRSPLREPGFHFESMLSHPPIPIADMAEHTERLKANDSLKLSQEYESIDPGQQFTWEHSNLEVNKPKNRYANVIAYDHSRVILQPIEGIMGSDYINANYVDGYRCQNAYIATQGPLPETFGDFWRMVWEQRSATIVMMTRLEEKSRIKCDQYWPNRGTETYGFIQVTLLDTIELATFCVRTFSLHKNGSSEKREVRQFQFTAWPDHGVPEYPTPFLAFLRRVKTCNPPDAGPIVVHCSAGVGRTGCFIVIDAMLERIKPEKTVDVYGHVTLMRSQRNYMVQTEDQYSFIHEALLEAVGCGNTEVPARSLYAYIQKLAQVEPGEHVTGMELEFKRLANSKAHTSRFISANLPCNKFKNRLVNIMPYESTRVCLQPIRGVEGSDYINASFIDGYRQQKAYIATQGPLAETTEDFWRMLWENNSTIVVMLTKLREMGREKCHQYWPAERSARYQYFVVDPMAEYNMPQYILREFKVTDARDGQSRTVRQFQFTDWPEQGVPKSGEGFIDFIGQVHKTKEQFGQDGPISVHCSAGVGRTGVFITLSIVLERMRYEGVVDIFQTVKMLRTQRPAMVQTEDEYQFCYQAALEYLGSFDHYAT

B1: 22H8^IgG2b (22H8 variable regions on mouse IgG2b/κ constant regions) (antibody, V domains shown)
VH: QVQLQQSGAELARPGASVKLSCKASGYTFTSYWMQWVKQRPGQGLEWIGAIYPGDGDTRYTQKFKGKATLTADKSSSTAYMQLSSLASEDSAVYYCARRIYYGYYYAMDYWGQGTSVTVSS
VL: DIVLTQSPASLAVSLGQRATISCKASQSVDYDGDSYMNWYQQKPGQPPKLLIYAASNLESGIPARFSGSGSGTDFTLNIHPVEEEDAATYYCQQSNEDPLTFGAGTKLELK
notes: as the VH of m3 (22H8); constant region of the mouse IgG2b heavy chain (entire constant region swapped); as the VL of m3 (22H8); constant region of the mouse κ light chain; IgG2b/κ form of 22H8; source: production contracted to Viva Biotech
In turn, B1 had a koff in assay [1] of 0.06 s⁻¹. In addition, the Kd in assay [2] stood at 38.2 nM.

B2: 22H8^HL-scFv-Fc (VH-linker-VL scFv of 22H8 fused to human IgG1 Fc) (scFv, V domains shown)
VH: QVQLQQSGAELARPGASVKLSCKASGYTFTSYWMQWVKQRPGQGLEWIGAIYPGDGDTRYTQKFKGKATLTADKSSSTAYMQLSSLASEDSAVYYCARRIYYGYYYAMDYWGQGTSVTVSS
VL: DIVLTQSPASLAVSLGQRATISCKASQSVDYDGDSYMNWYQQKPGQPPKLLIYAASNLESGIPARFSGSGSGTDFTLNIHPVEEEDAATYYCQQSNEDPLTFGAGTKLELK
notes: as the VH of m3 (22H8); linker between VH and VL; as the VL of m3 (22H8); ORF synthesized by Genscript and subcloned into pHLsec as a C-terminal hFc fusion; also called 22H8-Fc HL; source: HEK293T, transiently transfected, supernatant; purified (Protein A); not shown: Fc (human IgG1), C-terminal, kept
In the case of B2, in assay [3], the Kd was 2.65 nM. Further, the koff in assay [4] amounted to 0.0056 s⁻¹. Further, the binding result in [5] and in assay [6] was “binds” in each case.

B3: 22H8 (mouse monoclonal antibody, IgG1/κ) (antibody, V domains shown)
VH: QVQLQQSGAELARPGASVKLSCKASGYTFTSYWMQWVKQRPGQGLEWIGAIYPGDGDTRYTQKFKGKATLTADKSSSTAYMQLSSLASEDSAVYYCARRIYYGYYYAMDYWGQGTSVTVSS
VL: DIVLTQSPASLAVSLGQRATISCKASQSVDYDGDSYMNWYQQKPGQPPKLLIYAASNLESGIPARFSGSGSGTDFTLNIHPVEEEDAATYYCQQSNEDPLTFGAGTKLELK
notes: VH of 22H8; constant region of the mouse IgG1 heavy chain; VL of 22H8; constant region of the mouse κ light chain; IgG1/κ; source: production contracted to Viva Biotech
In the case of B3, the Kd in assay [3] worked out at 17.6 nM; in assay [2] it was 13.2 ± 3.74 nM. Moreover, the koff in [7] turned out to be 0.002 s⁻¹; in assay [4] it was 0.009 s⁻¹. Further, the binding result in [8], in assay [9], in [10] and in assay [6] was “binds” in each case.

B4: 13G5^IgG1 (13G5 variable regions on mouse IgG1/κ constant regions) (antibody, V domains shown)
VH: EVKLVESGGGLVQPGGSLKLSCATSGFTFSDYYMYWVRQTPEKRLEWVAYISNGGGSTYYPDTVKGRFTISRDNAKNTLYLQMSRLKSEDTAMYYCARHVYYGRNYAMDYWGQGTSVTVSS
VL: DIQMTQTTSSLSASLGDRVTISCRASQDISNYLNWYQQKPDGTVKLLIYYTSRLHSGVPSRFSGSGSGTDYSLTISNLEQEDIATYFCQQGNTLPYTFGGGTKLEIK
The molecule B4 yielded a Kd in assay [11] of 16.5 nM. Moreover, the koff in assay [1] is 0.003 s⁻¹.

B5: 13G5^HL-scFv-Fc (VH-linker-VL scFv of 13G5 fused to human IgG1 Fc) (scFv, V domains shown)
VH: EVKLVESGGGLVQPGGSLKLSCATSGFTFSDYYMYWVRQTPEKRLEWVAYISNGGGSTYYPDTVKGRFTISRDNAKNTLYLQMSRLKSEDTAMYYCARHVYYGRNYAMDYWGQGTSVTVSS
VL: DIQMTQTTSSLSASLGDRVTISCRASQDISNYLNWYQQKPDGTVKLLIYYTSRLHSGVPSRFSGSGSGTDYSLTISNLEQEDIATYFCQQGNTLPYTFGGGTKLEIK
With B5, the affinity in assay [3], expressed as Kd, was 0.28 nM. In addition, the koff in [4] came out at 0.00016 s⁻¹.

B6: 49F2 (mouse monoclonal antibody, IgG1/κ) (antibody, V domains shown)
VH: EVQLVESGGDLVKPGGSLKLSCAASGFIFSSYGMSWVRQTPDKRLEWVATISSGGSDTYYPDSVKGRFTISRDNANNTLYLQMSSLKSEDTAMYYCARQVYYGLYWYFDVWGAGTTVTVSS
VL: DIVMTQSHKFMSTSVGDRVSIICKASQDVNTAVAWYQQKPGQSPKLLIYSASYRYTGVPDRFTGSGSGTDFTFTISSVQAEDLAIYYCQQHYSTPYTFGGGTKLEIK
notes: VH of 49F2; constant region of the mouse IgG1 heavy chain; VL of 49F2; constant region of the mouse κ light chain; IgG1/κ; source: production contracted to Viva Biotech
With B6, the koff in assay [7] was 0.005 s⁻¹. Further, the binding result in assay [8], in [9] and in assay [10] was “binds” throughout. In [2], this molecule gave a Kd of 25.7 ± 9.66 nM.

A word on the koff: it is the rate constant with which the complex falls apart. Read a low koff as a long-lived complex. As usually defined, the Kd is the free concentration of one partner at which half of the binding sites on the other are occupied at equilibrium, for simple one-to-one binding.
